According to US20240141059A1 (Bristol-Myers Squibb, published 2024):
“And” between values parts separate entries of the source, which are not always exact repeats. Equal entries are not always repeated.

B1: CD73.3-IgG1.1 (antibody, V domains shown)
VH: EVQLVESGGGLVQPGRSLRLSCAASGFTFDDYAMHWVRQAPGKGLEWVSGISWKSGSIGYADSVKGRFTISRDNAKNSLYLQMNSLRAEDTVLYYCVKGYYVILTGLDYWGQGTLVTVSS
VL: not shown
notes: also called CD73.3-IgG1.1f; 3-Vh-hHC-IgG1.1f/4C3Vk1
B2: 3h56-269-IgG1.3f (Fc fusion)
chain: EVQLLESGGGLVQPGGSLRLSCAASGFTFRDYEMWWVRQAPGKGLERVSAINPQGTRTYYADSVKGRFTISRDNSKNTLYLQMNSLRAEDTAVYYCAKLPFRFSDRGQGTLVTVSSASTEPKSCDKTHTCPPCPAPEAEGAPSVFLFPPKPKDTLMISRTPEVTCVVVDVSHEDPEVKFNWYVDGVEVHNAKTKPREEQYNSTYRVVSVLTVLHQDWLNGKEYKCKVSNKALPAPIEKTISKAKGQPREPQVYTLPPSREEMTKNQVSLTCLVKGFYPSDIAVEWESNGQPENNYKTTPPVLDSDGSFFLYSKLTVDKSRWQQGNVFSCSVMHEALHNHYTQKSLSLSPGK
notes: dAb-Fc fusion protein
B3: 3h56-269-IgG1.1f (Fc fusion)
chain: EVQLLESGGGLVQPGGSLRLSCAASGFTFRDYEMWWVRQAPGKGLERVSAINPQGTRTYYADSVKGRFTISRDNSKNTLYLQMNSLRAEDTAVYYCAKLPFRFSDRGQGTLVTVSSASTEPKSCDKTHTCPPCPAPEAEGAPSVFLFPPKPKDTLMISRTPEVTCVVVDVSHEDPEVKFNWYVDGVEVHNAKTKPREEQYNSTYRVVSVLTVLHQDWLNGKEYKCKVSNKALPSSIEKTISKAKGQPREPQVYTLPPSREEMTKNQVSLTCLVKGFYPSDIAVEWESNGQPENNYKTTPPVLDSDGSFFLYSKLTVDKSRWQQGNVFSCSVMHEALHNHYTQKSLSLSPGK
notes: dAb-Fc fusion protein
B4: CD73.10-IgG2-C219S (antibody)
heavy: QVQLVESGGGVVQPGRSLRLSCAASGFTFSNYGMHWVRQAPGKGLEWVAVIWYDESNKYYPDSVKGRFTISRDNSKNTLYLQMNSLRAEDTAVYYCARGGSSWYPDSFDIWGQGTMVTVSSASTKGPSVFPLAPCSRSTSESTAALGCLVKDYFPEPVTVSWNSGALTSGVHTFPAVLQSSGLYSLSSVVTVPSSNFGTQTYTCNVDHKPSNTKVDKTVERKSCVECPPCPAPPVAGPSVFLFPPKPKDTLMISRTPEVTCVVVDVSHEDPEVQFNWYVDGVEVHNAKTKPREEQFNSTFRVVSVLTVVHQDWLNGKEYKCKVSNKGLPAPIEKTISKTKGQPREPQVYTLPPSREEMTKNQVSLTCLVKGFYPSDIAVEWESNGQPENNYKTTPPMLDSDGSFFLYSKLTVDKSRWQQGNVFSCSVMHEALHNHYTQKSLSLSPG
light: not shown
notes: also called CD73.10-IgG2CS; CD73.10-Vh-hHC-IgG2-C219S
B5: CD73.10-IgG2-C219S-IgG1.1 (antibody)
heavy: QVQLVESGGGVVQPGRSLRLSCAASGFTFSNYGMHWVRQAPGKGLEWVAVIWYDESNKYYPDSVKGRFTISRDNSKNTLYLQMNSLRAEDTAVYYCARGGSSWYPDSFDIWGQGTMVTVSSASTKGPSVFPLAPCSRSTSESTAALGCLVKDYFPEPVTVSWNSGALTSGVHTFPAVLQSSGLYSLSSVVTVPSSNFGTQTYTCNVDHKPSNTKVDKTVERKSCVECPPCPAPPVAGPSVFLFPPKPKDTLMISRTPEVTCVVVDVSHEDPEVKFNWYVDGVEVHNAKTKPREEQYNSTYRVVSVLTVLHQDWLNGKEYKCKVSNKALPSSIEKTISKAKGQPREPQVYTLPPSREEMTKNQVSLTCLVKGFYPSDIAVEWESNGQPENNYKTTPPMLDSDGSFFLYSKLTVDKSRWQQGNVFSCSVMHEALHNHYTQKSLSLSPG
light: not shown
notes: also called CD73.10-IgG2CS-IgG1.1f; CD73.10-Vh-hHC-IgG2-C219S-IgG1.1f

Columns and labels:
hCD73-his [1] = target: T1, hCD73-his (human, UniProt P21589 26-546); assay: DLS, target:mAb 1:1, 4 uM + 4 uM; unit from the text
T1 construct: range 26-546; also called full length extracellular domain of human-CD73
T1 sequence (looked up): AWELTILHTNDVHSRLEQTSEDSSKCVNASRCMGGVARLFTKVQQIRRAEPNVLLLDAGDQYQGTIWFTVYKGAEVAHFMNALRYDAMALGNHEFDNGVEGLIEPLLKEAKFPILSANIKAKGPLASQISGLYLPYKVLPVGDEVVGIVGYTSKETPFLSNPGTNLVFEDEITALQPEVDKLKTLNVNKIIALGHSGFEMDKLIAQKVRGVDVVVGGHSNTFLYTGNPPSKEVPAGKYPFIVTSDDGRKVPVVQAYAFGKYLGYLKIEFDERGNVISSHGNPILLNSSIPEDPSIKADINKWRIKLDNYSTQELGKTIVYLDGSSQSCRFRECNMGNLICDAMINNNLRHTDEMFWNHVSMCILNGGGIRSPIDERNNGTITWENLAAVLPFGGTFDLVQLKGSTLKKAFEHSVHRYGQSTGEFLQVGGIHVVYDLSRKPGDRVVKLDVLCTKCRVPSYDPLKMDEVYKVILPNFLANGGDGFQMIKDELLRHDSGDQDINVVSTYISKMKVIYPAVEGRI
Protocol: (§1) The structure and oligomeric state of CD73/antibody complexes in solution were examined by SEC-MALS and DLS.
(§2) Dynamic light scattering (DLS) studies were performed on a Wyatt DynaPro® plate reader in 384 well plates at 25° C. Experimental parameters were 20 acquisitions of 5 s each per measurement, and measurements were recorded in quadruplicate, with the average and standard deviation reported. Intensity autocorrelation functions were fitted using the “Regularization” algorithm in the Dynamics® software (Wyatt Technologies®).

N-hCD73-his [2] = target: T2, N-hCD73-his (human, UniProt P21589 26-336, limits assumed); assay: SEC-MALS, target:mAb 2:1, 8 uM + 4 uM
T2 construct: monomeric in solution by SEC-MALS; also called N-terminal domain of hCD73
T2 sequence (looked up): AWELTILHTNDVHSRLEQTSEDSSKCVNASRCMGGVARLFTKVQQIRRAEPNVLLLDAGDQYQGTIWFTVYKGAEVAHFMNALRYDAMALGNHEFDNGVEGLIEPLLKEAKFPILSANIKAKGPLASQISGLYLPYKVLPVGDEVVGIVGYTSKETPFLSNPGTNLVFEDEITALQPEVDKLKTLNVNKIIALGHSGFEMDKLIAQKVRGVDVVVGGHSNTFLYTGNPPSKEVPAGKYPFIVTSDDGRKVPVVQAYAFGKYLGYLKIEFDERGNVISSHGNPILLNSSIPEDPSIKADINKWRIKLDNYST
Protocol: as §1
(§3) The oligomeric state of CD73/antibody complexes were examined by size-exclusion chromatography coupled to an in-line multi-angle light scattering detector (SEC-MALS). Isocratic separations were performed on a Shodex PROTEIN KW-803 column connected to an Prominence Shimadzu UFLC in buffer containing 200 mM K₂HPO₄, 150 mM NaCl, pH 6.8, containing 0.02% Na azide (0.1 μm filtered) running at 0.5 mL/min. Samples were injected onto the column using a SIL-20AC Prominence Shimadzu® autosampler, and data were obtained from three online detectors connected in series: a Prominence SPD-20AD diode array UV/vis spectrophotometer followed by a Wyatt miniDAWN™ TREOS Multi-Angle Light Scattering Detector then a Wyatt Optilab T-rEX Refractive Index Detector® instrument. Data were collected and analyzed using Astra® (Wyatt) and Labsolutions® (Shimadzu) software.

hCD73-his [3] = target: T1, hCD73-his; assay: SEC-MALS, target:mAb 1:1, 4 uM + 4 uM
Protocol: as §1, §3

human CD73 on cells [4] = target: T3, human CD73 on cells (human, UniProt P21589 27-549); assay: cell-based or functional assay
T3 sequence (looked up): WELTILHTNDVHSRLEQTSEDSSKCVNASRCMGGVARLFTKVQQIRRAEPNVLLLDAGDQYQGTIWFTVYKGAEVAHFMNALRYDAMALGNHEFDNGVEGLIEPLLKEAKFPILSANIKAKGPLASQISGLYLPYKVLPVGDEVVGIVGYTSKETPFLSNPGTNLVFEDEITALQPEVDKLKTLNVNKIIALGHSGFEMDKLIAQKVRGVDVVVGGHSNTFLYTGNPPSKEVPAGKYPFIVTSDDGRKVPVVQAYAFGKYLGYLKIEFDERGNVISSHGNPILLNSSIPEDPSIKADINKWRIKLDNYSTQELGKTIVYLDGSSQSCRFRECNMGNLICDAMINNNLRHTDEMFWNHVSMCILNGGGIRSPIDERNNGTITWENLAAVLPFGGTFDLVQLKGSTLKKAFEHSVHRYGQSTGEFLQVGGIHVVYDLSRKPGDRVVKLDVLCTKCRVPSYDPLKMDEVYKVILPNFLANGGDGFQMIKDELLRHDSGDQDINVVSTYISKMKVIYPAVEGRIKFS

N-hCD73-his [5] = target: T2, N-hCD73-his; assay: DLS, target:mAb 2:1, 8 uM + 4 uM; unit from the text
Protocol: as §1, §2

hCD40-Fc = target: T4, hCD40-Fc (human, UniProt P25942 21-193); assay: SPR, hCD40-Fc immobilized, dAb-Fc analyte, avidity
T4 construct: Immobilized on the sensor chip; not shown: Fc part of hCD40-Fc not described

[6] = target: T5, purified human-CD40 monomer (human, UniProt P25942 21-193, limits assumed); assay: SPR, dAb-Fc on protein A, hCD40monomer analyte; second set
T5 construct: Soluble analyte; also called hCD40monomer

N-hCD73-his [7] = target: T2, N-hCD73-his; assay: SPR, mAb captured on protein A
Protocol: The affinity of the antibodies for human CD73 was measured to determine whether the change of the constant region affects them. The affinities were determined by Surface Plasmon Resonance (SPR) as follows. […] For these experiments, protein A (Pierce) was immobilized to a density of 3000-4000 RU on flow cells 1˜4 of a CMS sensor chip (GE Healthcare) using standard ethyl(dimethylaminopropyl) carbodiimide (EDC)/N-hydroxysuccinimide (NHS) chemistry, with ethanolamine blocking, in a running buffer of 0.01 M HEPES pH 7.4, 0.15 M NaCl, 3 mM EDTA, 0.005% v/v tween 20. […] The running buffer for the kinetic experiments was 10 mM sodium phosphate, 130 mM sodium chloride, 0.05% tween 20, pH 7.1. The surfaces were regenerated after each cycle using two 30 s pulses of 10 mM glycine pH 1.5 at a flow rate of 30 μl/min. Sensogram data was double-referenced and then fitted to a 1:1 Langmuir model using Biacore® T100 evaluation software v2.0.4, to determine the association rate constant (ka), the dissociation rate constant (kd), and the equilibrium dissociation constant (KD).

hCD73-his [8] = target: T1, hCD73-his; assay: DLS, target:mAb 1:1, 2.5 uM + 2.5 uM; unit from the text
Protocol: as §1, §2

hCD73-his [9] = target: T1, hCD73-his; assay: SEC-MALS, target:mAb 1:1, 2.5 uM + 2.5 uM
Protocol: as §1, §3

human CD73 on cells [10] = target: T3, human CD73 on cells; assay: cell-based or functional assay; remark: listed apart in the source

T5 sequence (P25942 21-193 limits assumed): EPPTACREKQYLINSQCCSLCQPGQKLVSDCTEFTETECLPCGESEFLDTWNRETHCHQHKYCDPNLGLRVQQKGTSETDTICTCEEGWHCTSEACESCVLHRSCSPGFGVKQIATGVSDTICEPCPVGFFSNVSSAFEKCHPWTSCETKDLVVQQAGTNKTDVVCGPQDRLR
T4 sequence (P25942 21-193): as the sequence (P25942 21-193 limits assumed) above

| Binder | Rh (hCD73-his [1]) [nm] | MW Peak 1 (N-hCD73-his [2]) [kDa] | MW Peak 2 (hCD73-his [3]) [kDa] | % internalization, H228 cells (human CD73 on cells [4]) [%] | Rh (N-hCD73-his [5]) [nm] | KDapparent (hCD40-Fc) [nM] | Kd (N-hCD73-his [7]) | koff (N-hCD73-his [7]) | kon (N-hCD73-his [7]) | Rh (hCD73-his [8]) [nm] | MW Peak 1 (hCD73-his [9]) [kDa] | MW Peak 2 (hCD73-his [9]) [kDa] | % internalization, Calu6 cells (human CD73 on cells [4]) [%] | % internalization, H2030 cells (human CD73 on cells [4]) [%] | % internalization, HCC15 cells (human CD73 on cells [4]) [%] | internalization T1/2, Calu6 cells (human CD73 on cells [4]) [min] | internalization T1/2, H228 cells (human CD73 on cells [4]) [min] | internalization T1/2, H2030 cells (human CD73 on cells [4]) [min] | internalization T1/2, HCC15 cells (human CD73 on cells [4]) [min] | internalization EC50, Calu6 cells, 2 h (human CD73 on cells [10]) [nM] | also measured |
| --- | --- | --- | --- | --- | --- | --- | --- | --- | --- | --- | --- | --- | --- | --- | --- | --- | --- | --- | --- | --- | --- |
| B1 | 10.8 | 170 | 530 | -47 | 5.8 |  |  |  |  |  |  |  |  |  |  |  |  |  |  |  |  |
| B2 |  |  |  |  |  | < 1 |  |  |  |  |  |  |  |  |  |  |  |  |  |  | Kd [6]: 9.8 nM; koff [6]: 0.00011 s⁻¹; kon [6]: 11000 M⁻¹ s⁻¹ |
| B3 |  |  |  |  |  | < 1 |  |  |  |  |  |  |  |  |  |  |  |  |  |  |  |
| B4 | 2.9 | 210 | 3400 | 93 | 6.5 |  | 6.2 nM and 8.3 nM | 0.0014 s⁻¹ and 0.0018 s⁻¹ | 220000 M⁻¹ s⁻¹ | 23.9 | 2200 | 310 | 91 | 85 | 91 | 3 | 9.7 | 3.3 | 2.6 | 0.67 | MW Peak 2 (N-hCD73-his [2]): 150 kDa; internalization Ymax (% of 100 nM 11F11), Calu6 cells (human CD73 on cells [10]): 99% |
| B5 |  |  |  | 92 |  |  | 5.7 nM and 6.8 nM | 0.0014 s⁻¹ and 0.0016 s⁻¹ | 240000 M⁻¹ s⁻¹ and 230000 M⁻¹ s⁻¹ | 25.6 | 2000 | 320 | 91 | 87 | 91 | 3.1 | 9.4 | 4.3 | 3 | 0.87 | MW Peak 3 (hCD73-his [9]): 390 kDa; internalization Ymax (% of 100 nM 11F11), Calu6 cells (human CD73 on cells [10]): 99% |
